{
  "source": "FireProtDB (doi:10.1021/bi034721x)",
  "proteins": {"B1": {"name": "Parvalbumin alpha wild type, P02625 (protein)", "chain": "MSMTDLLSAEDIKKAIGAFTAADSFDHKKFFQMVGLKKKSADDVKKVFHILDKDKSGFIEEDELGSILKGFSSDARDLSAKETKTLMAAGDKDGDGKIGVEEFSTLVAES"}},
  "details": "Rattus norvegicus; pH 7.4; Thermal; DSC; sodium phosphate 10 mM; NaCl 0.20 M; whole UniProt chain shown",
  "note": "Several values for one entry are separate records, joined by “and”; a condition that tells them apart may be missing. Equal values may be shown once.",
  "data": [
    {"protein": "B1", "values": [
      {"measurement": "unfolding enthalpy (calorimetric)", "value": "76 kcal/mol and 72 kcal/mol and 52 kcal/mol"}
    ]}
  ]
}
